This is an account of results in patent US20060241020A1, “Protein tyrosine phosphatase inhibitors” (Applied Research Systems ARS Holdings N.V., priority 2002, published 2006).

In general, Km refers to the substrate concentration at which the rate is half of its maximum.

The nature of the data set: pNPP hydrolysis, kinetic parameters. The data set is classed as biochemical. To be noted: generic substrate pNPP, 0-60 mM, pH 6.8, room temperature. As to the method:
For pNPP hydrolysis, 200 ng of PTP was incubated with varing amounts of the generic substrate (0-60 mM) in assay buffer (50 mM Tris pH 6.8 and 2 mM DTT) in a total volume of 50 μl at room temperature. Plates were read at 405 nm and kinetic parameters were determined using a non linear regression programme (Graphpad, Prism®).

B1: Sap-1WT: wild-type PTP-Sap1 catalytic domain (GST fusion) tested on pNPP (protein)
chain: LKRRNKKKQQKPELRDLVFSSPGDIPAEDFADHVRKNERDSNCGFADEYQQLSLVGHSQSQMVASASENNAKNRYRNVLPYDWSRVPLKPIHEEPGSDYINASFMPGLWSPQEFIATQGPLPQTVGDFWRLVWEQQSHTLVMLTNCMEAGRVKCEHYWPLDSQPCTHGHLRVTLVGEEVMENWTVRELLLLQVEEQKTLSVRQFHYQAWPDHGVPSSPDTLLAFWRMLRQWLDQTMEGGPPIVHCSAGVGRTGTLIALDVLLRQLQSEGLLGPFSFVRKMRESRPLMVQTEAQYVFLHQCILRFLQQSAQAPAEKEVPYEDVENLIYENVAAIQAHKLEV
modifications: left off: a dimerising Fc or GST
notes: wild-type PTP-Sap1 catalytic domain (GST fusion) tested on pNPP
For B1, the Km was 2660 µM.
